Here are results for two molecules from US20220362404A1 (MACQUARIE UNIVERSITY, published 2022).

One experiment has as its target T1, Flag-tagged cyclin F (Homo sapiens (Human), UniProt P41002 1-786).
T1 construct: Expressed in HEK293 cells and immunoprecipitated with anti-Flag; In the ubiquitylation assay it stood with co-immunoprecipitated Skp1, Cul1 and Rbx1; also called cyclin F-flag; Flag-cyclin F; not shown: C-terminal Flag tag
T1 sequence: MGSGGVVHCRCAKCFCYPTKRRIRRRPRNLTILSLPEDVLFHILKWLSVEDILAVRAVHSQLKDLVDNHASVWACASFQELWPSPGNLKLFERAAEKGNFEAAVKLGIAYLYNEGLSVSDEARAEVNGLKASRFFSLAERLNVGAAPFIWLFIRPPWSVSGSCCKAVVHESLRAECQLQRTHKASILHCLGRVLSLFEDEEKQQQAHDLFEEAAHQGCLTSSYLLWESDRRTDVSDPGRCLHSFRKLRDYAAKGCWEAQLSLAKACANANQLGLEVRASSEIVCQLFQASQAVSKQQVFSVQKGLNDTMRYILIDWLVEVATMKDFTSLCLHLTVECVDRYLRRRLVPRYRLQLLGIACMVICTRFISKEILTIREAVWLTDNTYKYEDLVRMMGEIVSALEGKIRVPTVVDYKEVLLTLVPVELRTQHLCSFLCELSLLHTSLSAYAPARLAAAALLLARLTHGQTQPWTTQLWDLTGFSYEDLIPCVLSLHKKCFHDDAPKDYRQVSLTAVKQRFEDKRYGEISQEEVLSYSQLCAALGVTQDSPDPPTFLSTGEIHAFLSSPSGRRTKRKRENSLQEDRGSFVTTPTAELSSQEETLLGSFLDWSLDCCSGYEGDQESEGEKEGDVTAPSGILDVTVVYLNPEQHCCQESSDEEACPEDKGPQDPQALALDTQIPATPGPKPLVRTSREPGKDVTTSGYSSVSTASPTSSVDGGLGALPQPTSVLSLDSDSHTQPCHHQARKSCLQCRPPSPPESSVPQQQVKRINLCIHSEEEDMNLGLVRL
Nature of the experiment: co-immunoprecipitation with anti-myc from HEK293 lysate, immunoblot. Here is the method: A. HEK293 cells were transfected with cyclin F-flag and TDP-43-HA. After 24 hours, cells were lysed and anti-flag antibodies or an IgG control were used to immunoprecipitate Flag-cyclin F. Eluates were analyzed by immunoblotting using antibodies recognizing cyclin F and TDP-43. B. HEK293 cells were transfected with cyclin F-flag and TDP-43-HA. At 24 hours post-transfection, cells were lysed and Flag-cyclin F was immunoprecipitated using antibodies recognizing the Flag tag. Eluates were analyzed by immunoblotting using antibodies recognizing cyclin F and phospho-TDP-43 (S409/410). C. Schematic showing the position of the RxL>AxA mutation within TDP-43. D. Cells were transfected with cyclin F and TDP-43(WT) or TDP-43(RxL>AxA). Cyclin F was immunoprecipitated from cell lysates using antibodies recognizing the Flag tag. Eluates were analyzed using anti-cyclin F and anti-TDP-43. E. Schematic showing the TDP-43 fragments used for immunoprecipitations. […] Eluates were analyzed by immunoblotting using antibodies recognizing cyclin F and myc.
In order to determine whether cyclin F interacts with TDP-43 through the typical RxL motif present in all known cyclin F substrates, constructs expressing wild-type TDP-43 or variant TDP-43 (RxL>AxA) were transfected into HEK293 cells (FIG. 1C). After 24 hours, the cells were lysed and Flag-cyclin F was immunoprecipitated and analyzed for TDP-43 by immunoblotting. […]
On the technique in general: Immunoblotting shows a protein as a band on a membrane.

The target in experiment [1] is T2, recombinant His-tagged TDP-43 (full length) (UniProt Q13148 1-414).
T2 construct: In MST it was labelled with RED-tris-NTA dye on the His tag; also called His-TDP-43; recombinant TDP-43; not shown: His tag, printed as His-TDP-43
Description: microscale thermophoresis, labelled His-TDP-43, GST-cyclin domain titrated. Here is the method: Recombinant His-tagged TDP-43 (a gift from Professor Julie Atkin's laboratory) was diluted to 200 nM in PBS-T buffer (137 mM NaCl, 2.5 mM KCl, 10 mM Na2HPO4, 2 mM KH2PO4, pH 7.4; 0.05% (v/v) Tween-20). The RED-tris-NTA dye was diluted in PBS-T to 100 nM. For labelling, the recombinant protein and diluted dye were mixed in a 1:1 volume ratio and incubated for 30 minutes at room temperature. Recombinant cyclin F-GST was also diluted in PBS-T buffer prior to analysis. Concentrations of cyclin F-GST (cyclin box) ranged from 0-22 μM. Before MST measurements were carried out, samples were centrifuged for 10 minutes at 4° C. at 14,000×g. All MST measurements were performed on a NanoTemper Monolith™NT.115 instrument using standard treated capillaries at room temperature. Final dye concentration of 25 nM yielded the fluorescence intensity of around 300 counts at a LED power of 50%. Accordingly, the MST power range was between 40-60% intensity with a laser-on time of 30 s and a laser-off time of 5 s. All data were analysed by MO Affinity Analysis Software.
In general terms: MST reads how a fluorescent partner responds to local heating, with and without ligand.

B1: Myc-tagged C-terminal fragment of TDP-43 (167-414) (other, UniProt Q13148 167-414, looked up)
chain: MIDGRWCDCKLPNSKQSQDEPLRSRKVFVGRCTEDMTEDELREFFSQYGDVMDVFIPKPFRAFAFVTFADDQIAQSLCGEDLIIKGISVHISNAEPKHNSNRQLERSGRFGGNPGGFGNQGGFGNSRGGGAGLGNNQGSNMGGGMNFGAFSINPAMMAAAQAALQSSWGMMGMLASQQNQSGPSGNNQNQGNMQREPNQAFGSGNNSYSGSNSGAAIGWGSASNAGSGSGFNGGFGSSMDSKSSGWGM
notes: Over-expressed in HEK293 cells with Flag-cyclin F; also called myc-TDP-43; not shown: myc tag, printed as myc-TDP-43
On to B1, for which the binding result with Flag-tagged cyclin F is recorded as “no binding”.

B2: GST-cyclin domain of cyclin F (aa 302-497) (other)
chain: QKGLNDTMRYILIDWLVEVATMKDFTSLCLHLTVECVDRYLRRRLVPRYRLQLLGIACMVICTRFISKEILTIREAVWLTDNTYKYEDLVRMMGEIVSALEGKIRVPTVVDYKEVLLTLVPVELRTQHLCSFLCELSLLHTSLSAYAPARLAAAALLLARLTHGQTQPWTTQLWDLTGFSYEDLIPCVLSLHKKCF
notes: Made in E. coli from pGEX5; also called cyclin box of cyclin F; cyclin F-GST (cyclin box); not shown: glutathione S-transferase (GST) tag of the pGEX5 vector
As to B2, the binding result in experiment [1] is recorded as “binds”.
